Assay results published in patent publication US20090253630A1 (Eli Lilly, published 2009).
Groups on a side chain read outwards from the residue. No end group written: not given here. CO‑CH2 = CO-CH2 linker joining mPEG to the Lys side chain

T1: PTH receptor (PTHR1) on SaOS-2 osteosarcoma cells (UniProt Q03431 27-593, limits assumed)
T1 sequence (looked up): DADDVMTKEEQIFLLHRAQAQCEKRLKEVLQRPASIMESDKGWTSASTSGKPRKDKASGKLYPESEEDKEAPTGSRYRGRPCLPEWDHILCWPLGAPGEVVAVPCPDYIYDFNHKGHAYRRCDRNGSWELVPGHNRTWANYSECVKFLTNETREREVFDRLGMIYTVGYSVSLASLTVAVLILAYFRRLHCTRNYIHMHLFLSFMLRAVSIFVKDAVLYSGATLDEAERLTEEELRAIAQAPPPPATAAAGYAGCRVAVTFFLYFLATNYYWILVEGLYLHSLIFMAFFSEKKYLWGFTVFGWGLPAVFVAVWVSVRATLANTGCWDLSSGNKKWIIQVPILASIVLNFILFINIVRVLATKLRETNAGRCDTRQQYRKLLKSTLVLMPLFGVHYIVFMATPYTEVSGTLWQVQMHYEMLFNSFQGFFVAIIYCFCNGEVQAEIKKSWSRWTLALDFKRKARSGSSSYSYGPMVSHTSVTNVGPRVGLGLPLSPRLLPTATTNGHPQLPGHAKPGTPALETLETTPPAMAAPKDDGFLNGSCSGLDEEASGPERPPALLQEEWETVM


Legend:
[1] = target: PTHR-emGFP expressed in transfected HEK 293 cells; assay: cell-based or functional assay
[2] = target: T1, PTH receptor (PTHR1) on SaOS-2 …; assay: cell-based or functional assay

PTHR1 internalization at 20 min, 100 nM compound, percent of vehicle only control (baseline=100%) [1]	PTHR1 internalization at 40 min, 100 nM compound, percent of vehicle only control (baseline=100%) [1]	PTHR1 internalization at 60 min, 100 nM compound, percent of vehicle only control (baseline=100%) [1]	PTHR1 internalization at 180 min, 100 nM compound, percent of vehicle only control (baseline=100%) [1]	Average EC50 (nM) (n = 2), cAMP induction in SaOS-2 cells (HTRF) [2]	Binder
127 % of vehicle only control	93 % of vehicle only control	91 % of vehicle only control	92 % of vehicle only control	–	SVSEIQLMHNLGRHLASMERVEWLRK([CO‑CH2-mPEG 5 kD])LLQDVHNF-NH2 (also: trifluoroacetate salt) [SEQ ID NO: 1 with 5 kD mPEG]
160 % of vehicle only control	120 % of vehicle only control	104 % of vehicle only control	102 % of vehicle only control	7.7 nM	SVSEIQLMHNLGRHLASMERVEWLRK([CO‑CH2-mPEG 2 kD])LLQDVHNF-NH2 (also: trifluoroacetate salt) [SEQ ID NO: 1 with 2 kD mPEG]
106 % of vehicle only control	126 % of vehicle only control	113 % of vehicle only control	142 % of vehicle only control	–	SVSEIQLMHNLGRHLASMERVEWLRKLLQDVHNF (not fully specified (C-terminus)) [SEQ ID NO: 1 but unpegylated and Lysine at amino acid 26]
